The text below walks through data of the supplement of paper PMC11246515.

A short description of the series: total protein half-life in vivo (active degradation + dilution); higher = more stable protein.
[1] abbreviates: E. coli NCM3722 delta-clpP delta-lon delta-hslV, growth: N-lim chemostat, doubling time 6 h.
The mark [2] stands for this setting: E. coli NCM3722 delta-clpP, growth: N-lim chemostat, doubling time 6 h.
The mark [3] stands for this setting: E. coli NCM3722 delta-hslV, growth: N-lim chemostat, doubling time 6 h.
[4] abbreviates: E. coli NCM3722 delta-lon, growth: N-lim chemostat, doubling time 6 h.
[5] abbreviates: E. coli NCM3722 delta-smpB, growth: N-lim chemostat, doubling time 6 h.
Where [6] appears, read: wild type E. coli NCM3722, growth: C-lim chemostat, doubling time 3 h.
Where [7] appears, read: wild type E. coli NCM3722, growth: C-lim chemostat, doubling time 6 h.
Setting [8] is: wild type E. coli NCM3722, growth: C-lim chemostat, doubling time 12 h.
The mark [9] stands for this setting: wild type E. coli NCM3722, growth: N-lim chemostat, doubling time 6 h.
Setting [10] is: wild type E. coli NCM3722, growth: N-lim chemostat, doubling time 12 h.
The mark [11] stands for this setting: wild type E. coli NCM3722, growth: P-lim chemostat, doubling time 6 h.
The mark [12] stands for this setting: wild type E. coli NCM3722, growth: P-lim chemostat, doubling time 12 h.

± gives the standard deviation of the averaged measurements.

For “MSCEELEIVWNNIKAEARTLADCEPMLASFYHATLLKHENLGSALSYMLANKLSSPIMPAIAIREVVEEAYAADPEMIASAACDIQAVRTRDPAVDKYSTPLLYLKGFHALQAYRIGHWLWNQGRRALAIFLQNQVSVTFQVDIHPAAKIGRGIMLDHATGIVVGETAVIENDVSILQSVTLGGTGKSGGDRHPKIREGVMIGAGAKILGNIEVGRGAKIGAGSVVLQPVPPHTTAAGVPARIVGKPDSDKPSMDMDQHFNGINHTFEYGDGI [P0A9D4]”, the “total protein half-life in vivo” value under setting [1] was 5.17 ± 0.28 h; the “total protein half-life in vivo” value under setting [2] was found to be 4.83 ± 0.052 h; the “total protein half-life in vivo” value under setting [3] stood at 4.32 ± 0.11 h; the “total protein half-life in vivo” value under setting [4] worked out at 4.85 ± 0.097 h; the “total protein half-life in vivo” value under setting [5] was 4.76 ± 0.16 h; the “total protein half-life in vivo” value under setting [6] came out at 3.65 ± 0.071 h. Moreover, the “total protein half-life in vivo” value under setting [7] came to 5.49 ± 0.22 h; the “total protein half-life in vivo” value under setting [8] was 9.82 ± 0.61 h; the “total protein half-life in vivo” value under setting [9] came to 5.03 ± 0.5 h; the “total protein half-life in vivo” value under setting [10] came out at 7.88 ± 0.39 h; the “total protein half-life in vivo” value under setting [11] was determined as 5.83 ± 0.13 h; the “total protein half-life in vivo” value under setting [12] is 11.5 ± 0.77 h.
Consider “MFILWYSASSTFGKDSDIVMGVRAQQKEKTRRSLVEAAFSQLSAERSFASLSLREVAREAGIAPTSFYRHFRDVDELGLTMVDESGLMLRQLMRQARQRIAKGGSVIRTSVSTFMEFIGNNPNAFRLLLRERSGTSAAFRAAVAREIQHFIAELADYLELENHMPRAFTEAQAEAMVTIVFSAGAEALDVGVEQRRQLEERLVLQLRMISKGAYYWYRREQEKTAIIPGNVKDE [P0ACU5]”, for which the “total protein half-life in vivo” value was 6.31 ± 0.35 h under setting [1]; 5.81 ± 0.25 h under setting [2]; 6.25 ± 0.1 h under setting [3]; 5.957 ± 0.021 h under setting [5]; 2.73 ± 0.18 h under setting [6]; 5.97 ± 0.75 h under setting [7]. The “total protein half-life in vivo” value worked out at 11.2 ± 2.1 h under setting [8]; 5.71 ± 0.12 h under setting [9]; 10.4 ± 1.6 h under setting [10]; 5.31 ± 0.57 h under setting [11]; 10.88 ± 0.052 h under setting [12].
Consider “MGNNVVVLGTQWGDEGKGKIVDLLTERAKYVVRYQGGHNAGHTLVINGEKTVLHLIPSGILRENVTSIIGNGVVLSPAALMKEMKELEDRGIPVRERLLLSEACPLILDYHVALDNAREKARGAKAIGTTGRGIGPAYEDKVARRGLRVGDLFDKETFAEKLKEVMEYHNFQLVNYYKAEAVDYQKVLDDTMAVADILTSMVVDVSDLLDQARQRGDFVMFEGAQGTLLDIDHGTYPYVTSSNTTAGGVATGSGLGPRYVDYVLGILKAYSTRVGAGPFPTELFDETGEFLCKQGNEFGATTGRRRRTGWLDTVAVRRAVQLNSLSGFCLTKLDVLDGLKEVKLCVAYRMPDGREVTTTPLAADDWKGVEPIYETMPGWSESTFGVKDRSGLPQAALNYIKRIEELTGVPIDIISTGPDRTETMILRDPFDA [P0A7D4]”, for which the “total protein half-life in vivo” value reads like this: under setting [1], 4.49 ± 0.41 h; under setting [2], 4.35 ± 0.28 h; under setting [3], 4.567 ± 0.026 h; under setting [4], 4.73 ± 0.3 h; under setting [5], 4.3 ± 0.15 h; under setting [6], 3.04 ± 0.093 h. The “total protein half-life in vivo” value reads like this: under setting [7], 5.86 ± 0.3 h; under setting [8], 10.4 ± 1.6 h; under setting [9], 4.39 ± 0.098 h; under setting [10], 7.26 ± 0.18 h; under setting [11], 6.09 ± 0.23 h; under setting [12], 10.6 ± 0.72 h.
With “MMQPSIKPADEHSAGDIIARIGSLTRMLRDSLRELGLDQAIAEAAEAIPDARDRLYYVVQMTAQAAERALNSVEASQPHQDQMEKSAKALTQRWDDWFADPIDLADARELVTDTRQFLADVPAHTSFTNAQLLEIMMAQDFQDLTGQVIKRMMDVIQEIERQLLMVLLENIPEQESRPKRENQSLLNGPQVDTSKAGVVASQDQVDDLLDSLGF [P0A9H9]”, the “total protein half-life in vivo” value under setting [8] was determined as 2.6 h.
In the case of “MVELKEPLATLWRGKDAFAEVKKLNGEVFRELETRRTLRFELSGKSYFLKWHKGTTLKEIIKNLLSLRMPVLGADREWHAIHRLSDVGVDTMKGIGFGEKGLNPLTRASFIITEDLTPTISLEDYCADWAVNPPDIRVKRMLIARVATMVRKMHTAGINHRDCYICHFLLHLPFTGREDELKISVIDLHRAQIRAKVPRRWRDKDLIGLYFSSMNIGLTQRDIWRFMKVYFGMPLRKILSLEQNLLNMASVKAERIKERTQRKGL”, the “total protein half-life in vivo” value came out at 6.12 ± 0.57 h under setting [1]; 6.03 ± 0.16 h under setting [2]; 6.41 ± 0.56 h under setting [3]; 5.58 ± 0.54 h under setting [4]; 5.92 ± 0.2 h under setting [5]; 3.02 ± 0.17 h under setting [6]. The “total protein half-life in vivo” value runs as follows: under setting [7], 6.68 ± 0.36 h; under setting [8], 11.5 ± 0.34 h; under setting [9], 5.76 ± 0.48 h; under setting [10], 11.4 ± 1.2 h; under setting [11], 5.94 ± 0.41 h; under setting [12], 12 ± 0.44 h.
Take “MKIITCYKCVPDEQDIAVNNADGSLDFSKADAKISQYDLNAIEAACQLKQQAAEAQVTALSVGGKALTNAKGRKDVLSRGPDELIVVIDDQFEQALPQQTASALAAAAQKAGFDLILCGDGSSDLYAQQVGLLVGEILNIPAVNGVSKIISLTADTLTVERELEDETETLSIPLPAVVAVSTDINSPQIPSMKAILGAAKKPVQVWSAADIGFNAEAAWSEQQVAAPKQRERQRIVIEGDGEEQIAAFAENLRKVI”: the “total protein half-life in vivo” value is, setting by setting: under setting [6], 2.81 ± 0.21 h; under setting [7], 5.04 h; under setting [8], 10.2 h.
With “MANGWTGNILRVNLTTGNITLEDSSKFKSFVGGMGFGYKIMYDEVPPGTKPFDEANKLVFATGPLTGSGAPCSSRVNITSLSTFTKGNLVVDAHMGGFFAAQMKFAGYDVIIIEGKAKSPVWLKIKDDKVSLEKADFLWGKGTRATTEEICRLTSPETCVAAIGQAGENLVPLSGMLNSRNHSGGAGTGAIMGSKNLKAIAVEGTKGVNIADRQEMKRLNDYMMTELIGANNNHVVPSTPQSWAEYSDPKSRWTARKGLFWGAAEGGPIETGEIPPGNQNTVGFRTYKSVFDLGPAAEKYTVKMSGCHSCPIRCMTQMNIPRVKEFGVPSTGGNTCVANFVHTTIFPNGPKDFEDKDDGRVIGNLVGLNLFDDYGLWCNYGQLHRDFTYCYSKGVFKRVLPAEEYAEIRWDQLEAGDVNFIKDFYYRLAHRVGELSHLADGSYAIAERWNLGEEYWGYAKNKLWSPFGYPVHHANEASAQVGSIVNCMFNRDCMTHTHINFIGSGLPLKLQREVAKELFGSEDAYDETKNYTPINDAKIKYAKWSLLRVCLHNAVTLCNWVWPMTVSPLKSRNYRGDLALEAKFFKAITGEEMTQEKLDLAAERIFTLHRAYTVKLMQTKDMRNEHDLICSWVFDKDPQIPVFTEGTDKMDRDDMHASLTMFYKEMGWDPQLGCPTRETLQRLGLEDIAADLAAHNLLPA”, the “total protein half-life in vivo” value by setting is: under setting [7], 5.09 h; under setting [8], 10.2 ± 4.6 h; under setting [10], 7.93 ± 1.3 h.
